Consider 1 substance from patent US8470772B2, “Leptin agonist and methods of use” (Temple University—Of The Commonwealth System of Higher …, priority 2008, dated 2013).

Non-standard residues stand in square brackets, D forms with d. No end group written: not given here. *: point of attachment. βGlc = OC[C@H]1O[C@@H](*)[C@H](O)[C@@H](O)[C@@H]1O; Tyr(3,5-I2) = N[C@@H](Cc1cc(I)c(O)c(I)c1)C(=O)O; Dap = NC[C@H](N)C(=O)O

The target in one data set is T1, ObR extracellular domain (Homo sapiens, UniProt P48357).
T1 construct: human IgG Fc-conjugated ObR extracellular domain (R&D Systems); purchased R&D Systems
T1 sequence (P48357 22-839 limits assumed): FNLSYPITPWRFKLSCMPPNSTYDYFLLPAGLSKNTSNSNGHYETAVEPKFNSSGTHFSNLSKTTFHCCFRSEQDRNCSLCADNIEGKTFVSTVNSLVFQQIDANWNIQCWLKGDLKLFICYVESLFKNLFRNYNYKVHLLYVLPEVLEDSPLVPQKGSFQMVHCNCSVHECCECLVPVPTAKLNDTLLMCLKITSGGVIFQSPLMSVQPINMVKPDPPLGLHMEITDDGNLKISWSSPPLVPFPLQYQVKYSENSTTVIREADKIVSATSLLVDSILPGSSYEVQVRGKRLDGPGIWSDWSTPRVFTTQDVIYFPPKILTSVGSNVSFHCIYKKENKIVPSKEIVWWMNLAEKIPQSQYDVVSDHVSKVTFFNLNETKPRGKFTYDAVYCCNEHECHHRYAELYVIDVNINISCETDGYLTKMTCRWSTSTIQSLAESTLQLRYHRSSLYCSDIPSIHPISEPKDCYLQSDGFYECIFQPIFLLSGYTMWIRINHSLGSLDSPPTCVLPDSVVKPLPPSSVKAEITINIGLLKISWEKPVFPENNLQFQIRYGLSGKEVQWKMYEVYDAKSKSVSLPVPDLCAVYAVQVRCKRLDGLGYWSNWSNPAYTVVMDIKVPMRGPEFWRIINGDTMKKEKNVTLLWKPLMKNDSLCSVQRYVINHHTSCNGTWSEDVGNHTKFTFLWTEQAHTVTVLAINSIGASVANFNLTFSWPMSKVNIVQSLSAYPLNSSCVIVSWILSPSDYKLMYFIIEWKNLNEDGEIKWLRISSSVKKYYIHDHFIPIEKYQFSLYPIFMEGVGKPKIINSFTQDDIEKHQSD
The experiment in a line: Dot-blot and ELISA-type solid-phase binding assay. Conditions: dot-blot, Western-blot or ELISA; 10 and 20 μg peptide load in ELISA. The method, then: For dot-blot and ELISA assays, the leptin fragments were dissolved in electroblot transfer buffer (25 mM Tris and […] buffer containing 20% methanol) and were applied to either a nitrocellulose membrane or dried upon ELISA plates (Otvos, L., Jr., and Szendrei, G. I. (1996) Enzyme-linked immunosorbent assay of peptides. In: Neuropeptide Protocols (G. B. Irvine and C. H. Williams, eds.). Humana Press, Totowa, N.J., pp. 269-275). The solid surfaces were blocked with 5% BSA in a PBS-0.5% Tween 20 buffer (PBST) for 3 hours at room temperature and were subsequently incubated with 10 μg/mL solution of human IgG Fc-conjugated ObR extracellular domain (R&D Systems) dissolved in Tris-buffered saline-0.1% Tween 20 buffer (TBST) containing 1% bovine serum albumin (BSA) for 1 hour. A monoclonal goat antibody (Santa Cruz Biotechnology), specific for the N-terminus of human ObR, was added to the assay mixture, followed by addition of a horseradish peroxidase(HRP)-conjugated anti-goat IgG donkey antibody for the dot-blot assay, and HRP-conjugated anti-goat Fc mouse antibody for ELISA assay (used at a 1:15,000 dilution in PBST and 1% BSA). Between reagents, the solid surfaces were washed extensively with PBST. After washing with PBST, the membrane was treated with a chemiluminescence luminol oxidizer (NEN) for 1 min. The resultant chemiluminescence was exposed to a X-Omat blue XB-1 film (Kodak) for 10 seconds, and the exposed film was developed. The ELISA was developed using an HRP ELISA kit including tetramethylbenzidine as a substrate and sulfuric acid as a stop solution. Optical absorbance values were read at 490 nm using a microplate reader.
A general note: An ELISA detects its analyte on a solid surface through an enzyme-linked reagent.

Another data set deals with ERK1/2. The experiment in a line: ObR signaling assay: ERK1/2 phosphorylation in MCF-7 cells by Western blotting. Type of data set: cell-based, human. The method, then:
MCF-7 cells were grown and treated with E1Free peptide and full-sized leptin as described for the cell stimulation assays elsewhere herein. Cells were lysed with SDS sample buffer and scraped off of the plate. DNA was sheared using sonication, after which the sample was heated to 95° C., centrifuged and, subjected to SDS-PAGE. After gel electrophoresis, the proteins were transferred to nitrocellulose membrane. The membrane was incubated with 5% milk as blocking buffer, followed by addition of rabbit polyclonal antibodies to phosphorylated or total ERK1/2 MAP kinases (1:500 dilution in TBST and 2% milk, Cell Signaling Technology). The expression of a constitutive Hsp72/74 protein was probed with mouse monoclonal antibodies to control protein loading (1:5,000 dilution in TBST and 3% milk Calbiochem). After extensive washing, the blots incubated with HRP-conjugated secondary anti-rabbit (1:1,000 in TBST and 2% milk, Santa Cruz Biotechnology) and anti-mouse (1:10,000 TBST and 3% milk, Amersham Biosciences) IgG antibodies produced in goats, and developed as described for the dot-blot above.
In general terms: In western blotting, separated proteins are transferred to a membrane and probed.

A short description of data set [1]: In vivo biodistribution of DY675-labeled peptide by fluorescence imaging. Conditions: intraperitoneal, female Balb/c mice, up to 65 minutes. How it is done:
E1Free peptide was co-synthesized with the near-infrared absorbing fluorescent dye DY675 and the resultant labeled peptide was purified by RP-HPLC. Forty microgams of the peptide was injected intraperiotoneally into shaved and isoflurane anesthesized female Balb/c mice. For imaging of the biodistribution of the peptide, the animals were placed into a fluorescence microscope chamber under continuous isoflurane exposure. Fluorescence exposure pictures were taken with an IVIS microscope set to a 695 nm emission wavelength. Images were obtained once a minute for the first ten minutes after peptide addition and every five minutes afterwards, until a 65 minute stop point was reached.

Consider “Tyr(I2)-Serβ(Glc)-Thr-Glu-Va1-Va1-Ala-Leu-Ser-Arg-Leu-Dap(Ac) ([Tyr(3,5-I2)]S(βGlc)TEVVALSRL[Dap](Ac)-NH2) [E1Free]”, for which, in the data set with ObR extracellular domain, the “binding to the extracellular domain of ObR” value is “bound”. Further, the “peptide concentration of maximum observed ERK1/2 stimulation” value with ERK1/2 was 200 nM. In addition, the “phosphorylation of ERK1/2” value in the data set on ERK1/2 (total ERK1/2 steady) is listed as “increased”. Further, the biodistribution entry in data set [1] was “localizes in the head, as well as the kidneys and liver”.
